Measurements published in patent US5831003A, “Peptides which bind to prothrombin and thrombin” (Bayer Corporation, priority 1996, dated 1998).
Ends that are not written are not given here.

Molecular target: T1, α-thrombin (Homo sapiens, UniProt P00734)
T1 construct: α-Thrombin is the active form of the plasma serine protease zymogen, prothrombin; purchased Enzyme Research Labs (South Bend, Ind.)
Assay: Confirmatory binding assay in column chromatographic format, peptides synthesized on A-Totda-Toyopearl
Conditions: for Absorbance, 280 nm 1M NaCl Eluate / Absorbance, 280 nm 2% Acetic Acid: integration of A280; for binding of thrombin to peptide resin (in words): summary of Table 2
Method: Confirmatory binding assays were performed in a column chromatographic format on a microbore HPLC using individual peptide sequences synthesized directly onto the Toyopearl 650 M Chelate resin which had been modified with Totda followed by an alanine residue (A-Totda-Toyopearl), at a final substitution density of 0.2 mmol/g resin. […] The endpoint was a dose-dependent increase in the acid eluate in the thrombin contactings, and quantification was by integration of the absorbance at 280 nm.

## VFPYGW (not fully specified (C-terminus)) [peptide synthesized on A-Totda-Toyopearl resin]
50 μg α-thrombin applied
  Absorbance, 280 nm 1M NaCl Eluate: np
  Absorbance, 280 nm 2% Acetic Acid: 0.88
100 μg α-thrombin applied
  Absorbance, 280 nm 1M NaCl Eluate: np
  Absorbance, 280 nm 2% Acetic Acid: 1.46
200 μg α-thrombin applied
  Absorbance, 280 nm 1M NaCl Eluate: np
  Absorbance, 280 nm 2% Acetic Acid: 2.01
  binding of thrombin to peptide resin (in words): bound thrombin

## ERPYHG (not fully specified (C-terminus)) [peptide synthesized on A-Totda-Toyopearl resin]
50 μg α-thrombin applied
  Absorbance, 280 nm 1M NaCl Eluate: 0.00
  Absorbance, 280 nm 2% Acetic Acid: 0.00
100 μg α-thrombin applied
  Absorbance, 280 nm 1M NaCl Eluate: 0.18
  Absorbance, 280 nm 2% Acetic Acid: 0.00
200 μg α-thrombin applied
  Absorbance, 280 nm 1M NaCl Eluate: 0.69
  Absorbance, 280 nm 2% Acetic Acid: 0.00
  binding of thrombin to peptide resin (in words): not

## VFPYAW (not fully specified (C-terminus)) [peptide synthesized on A-Totda-Toyopearl resin]
50 μg α-thrombin applied
  Absorbance, 280 nm 1M NaCl Eluate: 0.16
  Absorbance, 280 nm 2% Acetic Acid: 1.48
100 μg α-thrombin applied
  Absorbance, 280 nm 1M NaCl Eluate: 0.18
  Absorbance, 280 nm 2% Acetic Acid: 1.57
200 μg α-thrombin applied
  Absorbance, 280 nm 1M NaCl Eluate: np
  Absorbance, 280 nm 2% Acetic Acid: 3.59
  binding of thrombin to peptide resin (in words): bound thrombin

## ERPYKG (not fully specified (C-terminus)) [peptide synthesized on A-Totda-Toyopearl resin]
50 μg α-thrombin applied
  Absorbance, 280 nm 1M NaCl Eluate: 0.23
  Absorbance, 280 nm 2% Acetic Acid: 0.41
100 μg α-thrombin applied
  Absorbance, 280 nm 1M NaCl Eluate: 0.23
  Absorbance, 280 nm 2% Acetic Acid: 0.99
200 μg α-thrombin applied
  Absorbance, 280 nm 1M NaCl Eluate: 0.26
  Absorbance, 280 nm 2% Acetic Acid: 2.38
  binding of thrombin to peptide resin (in words): bound thrombin

## GFRKGP (not fully specified (C-terminus)) [peptide synthesized on A-Totda-Toyopearl resin]
50 μg α-thrombin applied
  Absorbance, 280 nm 1M NaCl Eluate: 0.12
  Absorbance, 280 nm 2% Acetic Acid: 0.41
100 μg α-thrombin applied
  Absorbance, 280 nm 1M NaCl Eluate: 0.15
  Absorbance, 280 nm 2% Acetic Acid: 0.77
200 μg α-thrombin applied
  Absorbance, 280 nm 1M NaCl Eluate: 0.25
  Absorbance, 280 nm 2% Acetic Acid: 1.71
  binding of thrombin to peptide resin (in words): bound thrombin

## PFPYVW (not fully specified (C-terminus)) [peptide synthesized on A-Totda-Toyopearl resin]
50 μg α-thrombin applied
  Absorbance, 280 nm 1M NaCl Eluate: np
  Absorbance, 280 nm 2% Acetic Acid: 2.82
100 μg α-thrombin applied
  Absorbance, 280 nm 1M NaCl Eluate: np
  Absorbance, 280 nm 2% Acetic Acid: 2.14
200 μg α-thrombin applied
  Absorbance, 280 nm 1M NaCl Eluate: np
  Absorbance, 280 nm 2% Acetic Acid: 3.32
50, 100 and 200 μg α-thrombin
  dose dependence of thrombin in the acid eluant (in words): not in a dose dependent manner
  binding of thrombin to peptide resin (in words): bound thrombin

## VFPYVW (not fully specified (C-terminus)) [peptide synthesized on A-Totda-Toyopearl resin]
50 μg α-thrombin applied
  Absorbance, 280 nm 1M NaCl Eluate: np
  Absorbance, 280 nm 2% Acetic Acid: 0.81
100 μg α-thrombin applied
  Absorbance, 280 nm 1M NaCl Eluate: np
  Absorbance, 280 nm 2% Acetic Acid: 1.21
200 μg α-thrombin applied
  Absorbance, 280 nm 1M NaCl Eluate: np
  Absorbance, 280 nm 2% Acetic Acid: 1.81
  binding of thrombin to peptide resin (in words): bound thrombin

## HQLWGSH
50 μg α-thrombin applied
  Absorbance, 280 nm 1M NaCl Eluate: np
  Absorbance, 280 nm 2% Acetic Acid: 0.58
100 μg α-thrombin applied
  Absorbance, 280 nm 1M NaCl Eluate: np
  Absorbance, 280 nm 2% Acetic Acid: 0.95
200 μg α-thrombin applied
  Absorbance, 280 nm 1M NaCl Eluate: np
  Absorbance, 280 nm 2% Acetic Acid: 1.76
  binding of thrombin to peptide resin (in words): enhanced binding

## PFAPTL
50 μg α-thrombin applied
  Absorbance, 280 nm 1M NaCl Eluate: np
  Absorbance, 280 nm 2% Acetic Acid: np
100 μg α-thrombin applied
  Absorbance, 280 nm 1M NaCl Eluate: np
  Absorbance, 280 nm 2% Acetic Acid: np
200 μg α-thrombin applied
  Absorbance, 280 nm 1M NaCl Eluate: np
  Absorbance, 280 nm 2% Acetic Acid: np
  binding of thrombin to peptide resin (in words): not

## RQLWQSH [RQLWGSH, variant of QLWGSH with added amino-terminal arginine, on A-Totda-Toyopearl resin]
50 μg α-thrombin applied
  Absorbance, 280 nm 1M NaCl Eluate: np
  Absorbance, 280 nm 2% Acetic Acid: 0.75
100 μg α-thrombin applied
  Absorbance, 280 nm 1M NaCl Eluate: np
  Absorbance, 280 nm 2% Acetic Acid: 1.49
200 μg α-thrombin applied
  Absorbance, 280 nm 1M NaCl Eluate: np
  Absorbance, 280 nm 2% Acetic Acid: 2.83
  binding of thrombin to peptide resin (in words): enhanced binding
